This note sets out measurements from PMC7247576.

Test in all cases: EMSA
Settings in all cases: tetrahydrofuran abasic residue (F); EMSA: 50 mM Tris-HCl pH 8.0, 100 mM NaCl, 1 mM DTT, 50 nM FAM-AP-DNA, 4 °C, 30 min; 5% native PAG. Fluorescence: 50 mM HEPES pH 8.0, 100 mM NaCl, 4 mM DTT …
Background: Mobility shift assays separate free from complexed probe on a gel.

The test system of data set [1] is APE1 (full-length) (Homo sapiens).
A further data set has as its system APE1NΔ35 (Homo sapiens).
The subject of the next data set is APE1NΔ61 (Homo sapiens).

Consider “AP-DNA (32-mer duplex with synthetic abasic site)”, for which the K half in data set [1] came out at 120 nM; in the data set with APE1NΔ35 (Homo sapiens), 200 nM; in the data set with APE1NΔ61 (Homo sapiens), 210 nM.
